The values that follow come from patent US10654915B2, “Antibodies useful in passive influenza immunization” (priority 2011, dated 2020).

For experiment [1], the system named is H1N1 Influenza A/Ca/04/09. Description: Comparison to treatment with Tamiflu in infected mice. It is filed as in vivo.
Experiment [2] relates to H3N2 A/Hong Kong/8/68 (A/HongKong/68). Description: MDCK monolayer microneutralization assay. The experiment is classed as cell-based, influenza A.
Experiment [3] relates to H3 A/Phillipines/2/82 x-79. Description: MDCK monolayer microneutralization assay. It is filed as cell-based, influenza A.
In the next experiment the test system is H3N2 A/Perth/16/2009. Briefly: MDCK monolayer microneutralization assay. The experiment is classed as cell-based, influenza A.
In another experiment the test system is H3N2: A/Perth/16/09. Also on record: species or system mice. The note with it: mouse, in vivo, ip, 10 mg/kg.
In the next experiment the test system is H4 (H4N4) A/Bufflehead. It is filed as cell-based, influenza A.
In experiment [4] the test system is H7 A/Redknot/NJ/1523470/06. Description: MDCK monolayer microneutralization assay. The experiment is classed as cell-based, influenza A. Particulars: H7 A/Redknot/NJ/1523470/06, bird virus.
The target of the next experiment is H3N2 A/Hong Kong/8/68 HA. The experiment is classed as binding, influenza A.
The subject of experiment [5] is H7N7 A/Netherlands/219/03. It is filed as cell-based, influenza A.
Experiment [6] deals with H3N2 A/New York/55/2004 HA. Briefly: Affinity by FortéBio. The experiment is classed as binding, influenza A. For orientation: In BLI a coated tip is dipped into the sample, and binding shifts an interference pattern.
The target in experiment [7] is HA of clades spanning Group 2. Briefly: Standard FortéBio assay (FIG. 3B). It is filed as binding, influenza A. The note with it: Group 2, FIG. 3B.
The next experiment has as its system H1. Briefly: Binding by MAB579 in vitro (FIG. 2). Further details: species or system influenza A. The note with it: H1, FIG. 2.
The next experiment relates to H7 A/Sanderling/A106-125. Briefly: MDCK monolayer microneutralization assay. The note with it: H7 A/Sanderling/A106-125, bird virus. It is filed as cell-based, influenza A.
The next experiment deals with H3N2 A/Wisconsin/67/2005. Briefly: MDCK monolayer microneutralization assay. It is filed as cell-based, influenza A.
Experiment [8] has as its target H7N3 A/Canada/rv444/04 HA. The experiment is classed as binding, influenza A.
The test system of the next experiment is H3 A/SW/MN/02719. It is filed as cell-based, influenza A.
Another experiment has as its system H7. Briefly: Binding by MAB579 in vitro (FIG. 2). Further details: species or system influenza A. Particulars: H7, FIG. 2.
Experiment [9] has as its system H7 A/Ruddy Turnstone/A106-892. Description: MDCK monolayer microneutralization assay. It is filed as cell-based, influenza A. The note with it: H7 A/Ruddy Turnstone/A106-892, bird virus.
Experiment [10] relates to H10 (H10N7) A/Northern Shoveler. The experiment is classed as cell-based, influenza A.
Another experiment concerns Philippines 2/82. Also on record: species or system mice. Particulars: mouse, in vivo.
A further experiment deals with H3N2 A/New York/55/2004. Description: MDCK monolayer microneutralization assay. The experiment is classed as cell-based, influenza A.
The subject of a further experiment is H3. Description: Binding by MAB579 in vitro (FIG. 2). Also on record: species or system influenza A. Particulars: H3, FIG. 2.
Experiment [11] concerns H7N3: A/Red Knot/NJ/1523470/06. Further details: species or system mice. The note with it: mouse, in vivo, ip, 10 mg/kg.
In a further experiment the test system is A/Ca/04/09 (H1N1). Description: In vivo efficacy, treatment at Day 2. Also on record: species or system mice. Particulars: IP at Day 2, 10 mg/kg (mixture 10 mg/kg each), FIGS. 6A, 6C.
A further experiment deals with H3 A/Udorn/307/1976. Briefly: MDCK monolayer microneutralization assay. The experiment is classed as cell-based, influenza A.
Another experiment deals with H3N2 A/Perth/16/2009 HA. The experiment is classed as binding, influenza A.
In a further experiment the test system is H7N3 A/Canada/rv444/04. It is filed as cell-based, influenza A.
The target in experiment [12] is H7N7 A/Netherlands/219/03 HA. The experiment is classed as binding, influenza A.
The test system of another experiment is H1N1. It is filed as cell-based, influenza A.
A further experiment deals with H5N1. It is filed as cell-based, influenza A.
In another experiment the target is H1 HA. It is filed as binding, influenza A. The note with it: read-out: affinity.
A further experiment addresses H5 HA. It is filed as binding, influenza A. The note with it: read-out: affinity.
A further experiment concerns the target H3 HA. The experiment is classed as binding, influenza A. Particulars: read-out: affinity.
Another experiment has as its system H7N3. The experiment is classed as cell-based, influenza A.
For a further experiment, the system named is H9N2. It is filed as cell-based, influenza A.

Read-outs that look alike come from different tables or passages of the source.

In the case of `CCOC(=O)C1=C[C@@H](OC(CC)CC)[C@H](NC(C)=O)[C@@H](N)C1` [Tamiflu, oseltamivir phosphate, reference compound], in experiment [1] (10 mice per group, treatment from Day +1, to Day 14), the survival result is listed as “all but two mice were dead before eight days post infection”. Moreover, in experiment [1] (by Day 14), the “weight attained, of the original weight” value is recorded as 92%. For the same molecule, in experiment [1] (treatment from Day +1), the “day at which decline in weight was reversed” value was not above 6 days.

B1: MAB579 (antibody, V domains shown)
VH: QVQLVQSGAEVKKPGASVKVSCKTSGYTFTAYTIHWVRQAPGQRLEWMGWINAGNGHTKYSQRFKGRVTITRDTSARTTYMELRSLTSEDTALYFCARGPETYYYDKTNWLNSHPDEYFQHWGHGTQVTVSS
VL: DIQMTQSPSTLSASVGDRVTITCRASQTINNYLAWYQQKPGKAPKLLIYKASSLESGVPSRFSGSGSGTEFTLTISSLQPDDFATYYCQEYNNDSPLTFGGGTKVEIK
modifications: CHAIN (1)...(132) MAB579 heavy chain sequence of variable domain; DOMAIN (31)...(35) CDR1; DOMAIN (50)...(67) CDR2; DOMAIN (99)...(121) CDR3; CHAIN (1)...(108) MAB579 light chain sequence of variable domain; DOMAIN (24)...(34) CDR1; DOMAIN (50)...(57) CDR2; DOMAIN (89)...(98) CDR3
The term IC50 denotes the concentration at which inhibition is half-maximal. The low end stands for greater potency in that assay, the high end for weaker potency in that assay. As a reminder, the EC50 is the midpoint of the concentration-response curve. Read a high EC50 as a less potent agent. In the case of B1, the “IC50” value in experiment [2] (H3 A/HongKong/68) was 2.8 µg/mL; in experiment [3], 0.9 µg/mL; in the experiment with H3N2 A/Perth/16/2009 (H3 A/Perth/16/2009), 0.2 µg/mL; with H4 (H4N4) A/Bufflehead, 15.5 µg/mL; in experiment [4], more than 20 µg/mL; in experiment [5], 0.6 µg/mL. In addition, the “IC50” value is more than 20 µg/mL with H7 A/Sanderling/A106-125; 1.0 µg/mL with H3N2 A/Wisconsin/67/2005 (H3 A/Wisconsin/67/2005); 3.9 µg/mL with H3 A/SW/MN/02719; more than 20 µg/mL in experiment [9]; 0.8 µg/mL in experiment [10]; 1.1 µg/mL with H3N2 A/New York/55/2004 (H3 A/New York/55/2004*). In addition, the figures for the 50% inhibitory concentration (IC50) in the experiment on H3 A/Udorn/307/1976 and with H7N3 A/Canada/rv444/04 were 1.9 µg/mL and 1.6 µg/mL, respectively. In addition, the “Potency Difference” value in [2] (MAB579 vs CR8020 EC50, H3N2 A/Hong Kong/8/68) is 3x; in the experiment with H3N2 A/Perth/16/2009 (MAB579 vs CR8020 EC50, H3N2 A/Perth/16/2009) it was 40x; in the experiment with H4 (H4N4) A/Bufflehead it was 3x; in experiment [5], 20x; in the experiment on H3N2 A/Wisconsin/67/2005 (MAB579 vs CR8020 EC50, H3N2 A/Wisconsin/67/2005), 3x; in the experiment on H3N2 A/New York/55/2004 (MAB579 vs CR8020 EC50, H3N2 A/New York/55/2004), 5x. Moreover, the “EC50” value came to 2.0 µg/mL in [2] (in vitro neutralization, H3N2 A/Hong Kong/8/68); 0.05 µg/mL in the experiment on H3N2 A/Perth/16/2009 (in vitro neutralization, H3N2 A/Perth/16/2009); 15.0 µg/mL in the experiment on H4 (H4N4) A/Bufflehead; 0.7 µg/mL in experiment [5]; 1.0 µg/mL in the experiment with H3N2 A/Wisconsin/67/2005 (in vitro neutralization, H3N2 A/Wisconsin/67/2005); 0.8 µg/mL in [10]. Also, the “EC50” value amounted to 2.0 µg/mL in the experiment with H3N2 A/New York/55/2004 (in vitro neutralization, H3N2 A/New York/55/2004) and 0.5 µg/mL in the experiment on H7N3 A/Canada/rv444/04. In addition, the “therapeutic effectiveness (survival)” value (in the experiment on H3N2: A/Perth/16/09; in experiment [11]) was “essentially fully effective” each time. Also, the Kd amounted to 0.2 nM at H3N2 A/Hong Kong/8/68 HA; 0.2 nM in [6]; 0.6 nM in experiment [8]; 0.7 nM on H3N2 A/Perth/16/2009 HA (read-out: Affinity by FortéBio); 0.8 nM at H3N2 A/Perth/16/2009 HA (read-out: KD); 0.4 nM in experiment [12] (read-out: Affinity by FortéBio). For the same molecule, in experiment [12] (read-out: KD), the Kd amounted to 0.4 nM. In addition, the “affinity across clades (in words)” value in experiment [7] is “sub-nM affinity”. Moreover, the results for the “binding affinity (in words)” value with H1, in the experiment on H7 and in the experiment on H3 were “negligible binding affinity”, “tightly bound” and “tightly bound”, respectively. Moreover, the protection / survival entry with Philippines 2/82 is listed as “effective”; in the experiment on A/Ca/04/09 (H1N1), “no survivors after 10 days”.

B2: MAB8 (antibody)
VH: EVQLVESGGGLVKPGGSLRLSCAASGFTFSTYTMSWVRQAPGQGLEWVSSITRTSSNIYYADSVEGRFTISRDNAKNSLYLQMHSLRVEDTAVYYCARISGVVGPVPFDYWGQGTLITVSS
light: DIQMTQSPSSLSASVGDRVTITCRASQTISKYLNWYQQKPGRAPKLLIYSASSLQSGVPSRFTGSGSGTDFTLTITSLQPEDFATYYCQQSYRPSQITFGPGTKVDIK
modifications: CHAIN (1)...(121) MAB8 heavy chain sequence of variable domain; CHAIN (1)...(108) MAB8 light chain sequence
With B2, the “neutralization of infection (in words)” value in the experiment on H1N1, in the experiment on H5N1, in the experiment on H7N3 and in the experiment on H9N2 was “does not neutralize infection” each time. Further, the Kd is 9 nM at H1 HA, 0.2 nM at H5 HA and 16 nM at H3 HA.
